Assay results published in the nanobody polyreactivity screen of Harvey et al. (2022).

Experiment: yeast display, Sf9 membrane polyspecificity reagent, FACS + sequencing; frameworks hold sequencing errors
Outline: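 Galactose induction of a Saccharomyces cerevisiae BJ5465 synthetic nanobody display library ran 36–48 hours. The cells were then stained for 1 hour at 4 °C with 10% biotinylated, detergent-solubilized Sf9 membrane reagent, pulled down on streptavidin microbeads and FACS-sorted into low and high (top ~1%) gates on expression and reagent-binding fluorescence. Labels for polyreactivity follow the gate of origin.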

| Sequence | polyreactivity (PSR sort gate) |
| --- | --- |
| QVQLVESGGGLVQAGGSLRLSCAASGSIFRDNAMGWYRQAPGKERELVASIRSSGGRTYYADSVKGRFTISRDNAKNTVYLQMNSLKPEDTAVYYCARRWYPVTPYARMYYWGQGTQVTVSS | low polyreactivity |
| QVQLVESGGGLVQAGGSLRLSCAASGSIFRFNAMGWYRPAPGKERELVAAISDSGGRTYYADSVKGRFTISRDNAKNTVYLQMNSLKPEDTAVYYCNAYVHTQGGDYWGQGTQVTVSS | high polyreactivity |
| QVQLVESGGGLVQAGGSLRLSCAASGSIFRFNAMGWYRQAPGKERELVAAISDSGGRTYYADSVKGRFTISRDNAKNTVYLQMNSLKPEETAVYYCNAYVHSQGGDYWGQGTQVTVSS | high polyreactivity |
| QVQLVESGGGLVQAGGSLRLSCAASGSIFRFNAMGWYRQAPGKERELVATISRSGGSTYYADSVKGRFTISRDNAKNTVYLQMNSLKPEDTAVYYCAADAYPTWPEYDGLYFKYDYWGQGTQVTVSS | high polyreactivity |
| QVQLVESGGGLVQAGGSLRLSCAASGSIFRFYAMGWYIQAPGKERELVAGITWSGASTYYAVSVKGRFTISRDNAKNTVYLQMNSLKPEDTAVYYCAAKSLIVRYDSWGQGTQVTVSS | high polyreactivity |
| QVQLVESGGGLVQAGGSLRLSCAASGSIFRFYAMGWYRQAPGKERELVAGITWSGASTYYADSVKGRFTISRDNAKNTVYFQMNSLKPEDSAVYYCAAKSLIVRYDSWGQGTQVSVSS | high polyreactivity |
| QVQLVESGGGLVQAGGSLRLSCAASGSIFRGNAMGWYRQAPGKEMELVAAINKSGGSTYYADSVKGRFTISRDNAKNTVYLQMNSLKPEDTAVYYCAAVYKRLQPYGYWGQGTQVTVSS | high polyreactivity |
| QVQLVESGGGLVQAGGSLRLSCAASGSIFRGNAMGWYRQAPGKERELVAAISKSGGSTYYADSVKGRFTISRDHAKNTVYLQMNSLKPEDTAVYYCAARTTYLYGMYYWGQGTQVTVSS | low polyreactivity |
| QVQLVESGGGLVQAGGSLRLSCAASGSIFRGNAMGWYRQAPGKERELVARITWSGGRTYYADSVKGRFTISRDNAKNTVYLQLNSLKPEDTAVYYCAAQYYLYRRGYMWKYDYWGQGTQVTVSS | high polyreactivity |
| QVQLVESGGGLVQAGGSLRLSCAASGSIFRGNAMGWYRQATGKERELVAAITSRASSTYYADSVKGRFTLSRDNAKNTVYLQMNSLKPEDTAVYYCAAKWVRSYYTFDHWGQGTQVTVSS | high polyreactivity |
| QVQLVESGGGLVQAGGSLRLSCAASGSIFRGNVMGWYRQAPGKERELVAAISWSGGSTYYADSVKGRFTISRDNAKNTVYLQMNSLKPEDTAVYYCAVRVWGSARGMDYWGQGTQVTVSS | high polyreactivity |
| QVQLVESGGGLVQAGGSLRLSCAASGSIFRGYAMGWYIQAPGKERELVAAITSRGGSTYYADSVKGRFTISRDNAKNTVYLQMNSLKPEDTEVYYCNKRVYYPWGQGTQVTVSS | high polyreactivity |
| QVQLVESGGGLVQAGGSLRLSCAASGSIFRGYAMGWYRQAPGKERDLVAAITSGGSTNYADSVKGRFTISRDNAKNSVYLQMNSLKPEDTAVYYCAKDLALVAPLSDYWGQGTQVTVSS | low polyreactivity |
| QVQLVESGGGLVQAGGSLRLSCAASGSIFRGYAMGWYRQAPGKERELVAAITFSGGSTYADSVKGRFTISRDNAKNTVYFQMNSLKPEDTAVYDCAAKRTGHNWFTVYPYYSWGQGTQVTVSS | low polyreactivity |
| QVQLVESGGGLVQAGGSLRLSCAASGSIFRHYAMGWYRQAPGKERELVAAISAIGGSTYADSVKGRFTISRDNAKNTVYLQMNSLKPEDTAVYYCNARSYTSYVYHEAGEFDYWGQGTQVTVSS | low polyreactivity |
| QVQLVESGGGLVQAGGSLRLSCAASGSIFRINAMGWYRQAPGKERELVAAISWSGGSTYYADSVKGRFTISRDNAKNTVYLQMNSLKPEDTAVYYCAAVVSKSSFDYWGQGTQVTVSS | low polyreactivity |
| QVQLVESGGGLVQAGGSLRLSCAASGSIFRIYAMGWSRQAPGKERELVAAIDSSGGSTYYADSVKGRFTISRDNAKNTVYLQMNSLKPEDTAVYYCAADFGSKSTPYDYWGQGTQVTVSS | low polyreactivity |
| QVQLVESGGGLVQAGGSLRLSCAASGSIFRIYAMGWYRQAPGKERELVAGISKSGGSTYYADSVKGRFTISRDNAKNTVYLQMNSLKPEDTAVYYCNARRPSWGLDKYDYWGQGTQVTVSS | low polyreactivity |
| QVQLVESGGGLVQAGGSLRLSCAASGSIFRKYAMGWYRQAPGKERELVARISSGGRTYYADSVKGRFTISRDNAKNTVYLQMNSLKPEDTAVYFCAAAYYQRGRYSWGQGSQVTVSS | high polyreactivity |
| QVQLVESGGGLVQAGGSLRLSCAASGSIFRKYAMGWYRQAPGKERELVAVITTDGSTNYADSVKGRFTISRDNAKNTVYLQMNSLKPEDTAVYYCNAVRSSIGTDNDYWGQGTQVTVSS | low polyreactivity |
| QVQLVESGGGLVQAGGSLRLSCAASGSIFRLYAMGWYRPAPGKERELVAAISRRGGSTNYADSVKGRFTISRDNAKNTVNLQMNSLKPEDTAVYYCNAVSKRSRYDYWGQGTQVTVSS | high polyreactivity |
| QVQLVESGGGLVQAGGSLRLSCAASGSIFRLYAMGWYRQAPGKEREFVARIRWRGGSTNYADSVKGRFTISRDNAKNTVYLQMNSLKPEDTAVYYCAAKQGTVRAHTYVPWYDYWGQGTQVTVSS | high polyreactivity |

| Sequence | polyreactivity (PSR sort gate) |
| --- | --- |
| QVQLVESGGGLVQAGGSLRLSCAASGSIFRLYAMGWYRQAPGKERELVATITSGGNTYADSVKGRFTISRDNAKNTVYLQMNSLKPEDTAVYYCATTVYAYSYGYEYWGQGTQVTVSS | high polyreactivity |
| QVQLVESGGGLVQAGGSLRLSCAASGSIFRNNAMGWYRQAPGKERELVASITRRGGSTYYADSVKGRFTISRDNAKNTVYLQMNSLKPEDTAVYYCAATTQHRYKLNYWGQGTQVTVSS | high polyreactivity |
| QVQLVESGGGLVQAGGSLRLSCAASGSIFRNYAMGWYRQAPGKERELVAAISRRGGSTYYADSVKGRFTISRDNAKNTVYLQMNSLKPEDTAVYYCKKRWSSKTVQYDYWGQGTQVTVSS | high polyreactivity |
| QVQLVESGGGLVQAGGSLRLSCAASGSIFRNYAMGWYRQAPGKERELVATISWNGGRTHYADSVKGRFTISRDNAKNTVYLQMNSLKPVDTAVYYCNKDAASFRHFYGYGYWGQGTQVTVSS | low polyreactivity |
| QVQLVESGGGLVQAGGSLRLSCAASGSIFRNYAMGWYRQAPGKERELVAVITYSGGNTYYADSVKGRFTISRDIAKNTVYLQMNSLKPEDSAVYYCAADYLVVAYGYRYLRHYYWGQGTQVTVSS | high polyreactivity |
| QVQLVESGGGLVQAGGSLRLSCAASGSIFRPYAMGWYRQAPGKERELVATITWRGGSTTYADSVKGRFTISRDNAKNTVYLQMNSLKPEDTAVYYCAADASWELFAWAHYDYWGQGTQVTVSS | low polyreactivity |
| QVQLVESGGGLVQAGGSLRLSCAASGSIFRPYAMGWYRQAPGTERELVAAITWSGGRTYYADSVKGRFTISRDTAKNTVYLQMNSLKPDDTAVYYCAADDSEGFDYWGQGTQVTVSS | high polyreactivity |
| QVQLVESGGGLVQAGGSLRLSCAASGSIFRPYVMGWYRQAPGKERELVAAISSRGGDTYYADSVKGRFTISRDNAKNTVYLQMNSLKPEDTAVYYCAAVEFRDSTFVVVSSPTSKSDYWGQGTQVTVSS | low polyreactivity |
| QVQLVESGGGLVQAGGSLRLSCAASGSIFRRKAMGWYRQAPGKERELVAAIRRGGSTNYADSVKGRFTISRDNAKNTVYLQMNSLKPEDTAVYYCAARGGSSGFYYWGQGTQVTVSS | high polyreactivity |
| QVQLVESGGGLVQAGGSLRLSCAASGSIFRRNAMGWYRQAPGKERELVAAINSRGGSTYYADSVKGRFTISRDNAKNTVYLQMNSLKPEDTAVYYCATARFLRYDRYDDYWGQGTQVTVSS | low polyreactivity |
| QVQLVESGGGLVQAGGSLRLSCAASGSIFRRNAMGWYRQAPGKERELVAAISYSGGSTYYADSVKGRFTISRDNAKNTVYLQMNSLKPEDTAVYYCAADLYYGFGGYYYWGQGTQVTVSS | high polyreactivity |
| QVQLVESGGGLVQAGGSLRLSCAASGSIFRRNAMGWYRQAPGKERELVAGISGGGSTYYADSVKGRFTISRDNAKNTVYLQMNSLKPEDTAVYFCATDKHFRWAGFDYWGQGTQVTVSS | low polyreactivity |
| QVQLVESGGGLVQAGGSLRLSCAASGSIFRRNTMGWSRQATGKERELVAAITYRGGSTYYADSVKGRFTISRDNAKNTDYLQMNSLKPEESAVYYCARYLWYYRVSKSDSWGQGTQVTVSS | high polyreactivity |
| QVQLVESGGGLVQAGGSLRLSCAASGSIFRRNVMGWYRQAPGKERELVAAITGSGGSTYYADSVKGRFTISRDNAKNTVYLQMNSLKPEDTAVYYCAKVPYYSRPHDYWGQGTQVTVSS | high polyreactivity |
| QVQLVESGGGLVQAGGSLRLSCAASGSIFRRYAMGWYRQAPGKERELVASISSRGTRTYYADSVKGRFTISRDTAKNTVYLQMNSLKPEDTAVYYCAASYYTPYDYWGQGTQVTVSS | high polyreactivity |
| QVQLVESGGGLVQAGGSLRLSCAASGSIFRRYAMGWYRQAPGKERELVAVITTDGSTYYADSVKGRFTISRDNAKNTVYLQMNSLKPEDTAVYYCAADVRHYIWEYYYWGQGTQVTVSS | low polyreactivity |
| QVQLVESGGGLVQAGGSLRLSCAASGSIFRSNAMGWYRQAPGKERELVAAISSSGGSTYYADSVKGRFTISRDNAKNTVYLQMNSLKPEDTAVYYCNTSVDRGLGYWGQGTQVTVSS | low polyreactivity |
| QVQLVESGGGLVQAGGSLRLSCAASGSIFRSNTMGWYRQAPGKERELVAGISYSGGSTYADSVKGRFTISRDNAKNTVYLQMNSLKPEDTAVYYCNTVYDPHTGQSDSWGQATQVTVSS | low polyreactivity |
| QVQLVESGGGLVQAGGSLRLSCAASGSIFRSYAMGWYRQAPGKEREFVAAINSRSGSTYYADSVKGRFTISRDNAKNTVYFQINSLKPEDTAVYYWAVTYYTRGYGHMDYWGQGTQVTVSS | high polyreactivity |
| QVQLVESGGGLVQAGGSLRLSCAASGSIFRSYAMGWYRQAPGKERELVAGITSSGGSTYADSVKGRFTISRDNAKNTVYLQMNSLKPEDTAVYFCAKPGFEWLLTRLFSVSEYDYWGQGTQVTVSS | low polyreactivity |
| QVQLVESGGGLVQAGGSLRLSCAASGSIFRSYAMGWYRQAPGKERELVARITYRGGGTYYADSVKGRVTISRDNAKNTVYLQMKSLKPEVTAVYYCAASGAFVRTRVTTADYDYWGQGTQVTVSS | high polyreactivity |
